From article PMC10448276, “Mechanisms controlling membrane recruitment and activation of the autoinhibited SHIP1 inositol 5-phosphatase” (The Journal of Biological Chemistry, 2023)
Non-standard residues stand in square brackets, D forms with d. No end group written: not given here. pY = N[C@@H](Cc1ccc(OP(=O)(O)O)cc1)C(=O)O

B1: mNG-SHIP1 (FL, 1–1188 aa), full-length human Src homology 2 domain–containing inositol 5-phosphatase 1 (enzyme, UniProt Q92835-2 1-1188, looked up)
chain: MVPCWNHGNITRSKAEELLSRTGKDGSFLVRASESISRAYALCVLYRNCVYTYRILPNEDDKFTVQASEGVSMRFFTKLDQLIEFYKKENMGLVTHLQYPVPLEEEDTGDDPEEDTESVVSPPELPPRNIPLTASSCEAKEVPFSNENPRATETSRPSLSETLFQRLQSMDTSGLPEEHLKAIQDYLSTQLAQDSEFVKTGSSSLPHLKKLTTLLCKELYGEVIRTLPSLESLQRLFDQQLSPGLRPRPQVPGEANPINMVSKLSQLTSLLSSIEDKVKALLHEGPESPHRPSLIPPVTFEVKAESLGIPQKMQLKVDVESGKLIIKKSKDGSEDKFYSHKKILQLIKSQKFLNKLVILVETEKEKILRKEYVFADSKKREGFCQLLQQMKNKHSEQPEPDMITIFIGTWNMGNAPPPKKITSWFLSKGQGKTRDDSADYIPHDIYVIGTQEDPLSEKEWLEILKHSLQEITSVTFKTVAIHTLWNIRIVVLAKPEHENRISHICTDNVKTGIANTLGNKGAVGVSFMFNGTSLGFVNSHLTSGSEKKLRRNQNYMNILRFLALGDKKLSPFNITHRFTHLFWFGDLNYRVDLPTWEAETIIQKIKQQQYADLLSHDQLLTERREQKVFLHFEEEEITFAPTYRFERLTRDKYAYTKQKATGMKYNLPSWCDRVLWKSYPLVHVVCQSYGSTSDIMTSDHSPVFATFEAGVTSQFVSKNGPGTVDSQGQIEFLRCYATLKTKSQTKFYLEFHSSCLESFVKSQEGENEEGSEGELVVKFGETLPKLKPIISDPEYLLDQHILISIKSSDSDESYGEGCIALRLEATETQLPIYTPLTHHGELTGHFQGEIKLQTSQGKTREKLYDFVKTERDESSGPKTLKSLTSHDPMKQWEVTSRAPPCSGSSITEIINPNYMGVGPFGPPMPLHVKQTLSPDQQPTAWSYDQPPKDSPLGPCRGESPPTPPGQPPISPKKFLPSTANRGLPPRTQESRPSDLGKNAGDTLPQEDLPLTKPEMFENPLYGSLSSFPKPAPRKDQESPKMPRKEPPPCPEPGILSPSIVLTKAQEADRGEGPGKQVPAPRLRSFTCSSSAEGRAAGGDKSQGKPKTPVSSQAPVPAKRPIKPSRSEINQQTPPTPTPRPPLPVKSPAVLHLQHSKGRDYRDNTELPHHGKHRPEEGPPGPLGRTAMQ
B2: pY-ITIM, phosphotyrosine peptide from the immunoreceptor tyrosine inhibitory motif (ITIM) of the FcγRIIB receptor (peptide)
peptide: CKTEAENTIT[pY]SLIK
modifications: also: N-terminal Cys coupled to maleimide headgroup of MCC-PE lipid in membrane-conjugated experiments
notes: cysteine added to the N terminus for coupling to the maleimide lipid; the tyrosine is phosphorylated; Used in solution (100 μM) or conjugated to supported lipid bilayers with 2% MCC-PE; also called pY peptide; ITIM peptide; source: synthetic peptide (Elim Biopharmaceuticals)

Assays:
[1] = target: B2; assay: cell-based or functional assay
[2] = target: B1; assay: TIRF microscopy on supported lipid bilayers (bulk membrane recruitment); 5 nM mNG-SHIP1 construct in solution; pY-ITIM peptide covalently conjugated to maleimide lipid in the SLB (96% DOPC, 2% PI(3,4,5)P3, 2% MCC-PE); 23 °C; conditions: both partners purified

Binder | lipid phosphatase activity of 20 nM FL SHIP1 on SLB (PI(3,4,5)P3 dephosphorylation, Grp1-AF647 sensor, reaction half time) with 100 μM pY-ITIM in solution [1] | binding result [2]
B1 | ~5 fold | 
B2 |  | binds
